Here are results for 1 molecule from patent US20060115477A1 (Bristol-Myers Squibb, published 2006).

This experiment concerns the target T1, neuropilin-1 (human, UniProt O14786 22-923).
T1 construct: whole, on cells; On intact cells in FACS and cell assays; pulled down from Triton X-100 lysate of HT1080 cells in the immunoprecipitation, identified as the full length form by MALDI peptide mass fingerprint; also called NP-1; VEGF165R
As to the kind of experiment: competition FACS on HT1080 cells preincubated with VEGF165 (legend of FIG. 17). As to the method: ScFv's were labeled with fluorescein isothiocyanate (Molecular Probes, # F-1906) according to the instructions of the manufacturer. HT1080 cells were preincubated with a control scFv, a NP-1-binding scFv's (e.g. scFv8, scFv13 or scFv22) (both at 25 μg/ml) or VEGF₁₆₅ (R&Dsystems, #293-VE/CF) ([…]) for 2 hours at 0° C. and the fluorescein labeled NP-1-binding scFv (5 μg/ml) was added for 30 min. at 0° C. Bound fluorescein labeled scFv were detected by flow cytometry and the geometric mean fluorescence intensity was recorded. In order to determine if NP-1-binding scFv has overlapping epitopes with VEGF and each other for binding to cell surface NP-1, a competition FACS with directly labeled scFv was performed. […] Furthermore, scFv8 and scFv24 have mutually overlapping epitopes whereas scFv13 has an epitope distinct from scFv8 and scFv24.

T1 sequence (O14786 22-923): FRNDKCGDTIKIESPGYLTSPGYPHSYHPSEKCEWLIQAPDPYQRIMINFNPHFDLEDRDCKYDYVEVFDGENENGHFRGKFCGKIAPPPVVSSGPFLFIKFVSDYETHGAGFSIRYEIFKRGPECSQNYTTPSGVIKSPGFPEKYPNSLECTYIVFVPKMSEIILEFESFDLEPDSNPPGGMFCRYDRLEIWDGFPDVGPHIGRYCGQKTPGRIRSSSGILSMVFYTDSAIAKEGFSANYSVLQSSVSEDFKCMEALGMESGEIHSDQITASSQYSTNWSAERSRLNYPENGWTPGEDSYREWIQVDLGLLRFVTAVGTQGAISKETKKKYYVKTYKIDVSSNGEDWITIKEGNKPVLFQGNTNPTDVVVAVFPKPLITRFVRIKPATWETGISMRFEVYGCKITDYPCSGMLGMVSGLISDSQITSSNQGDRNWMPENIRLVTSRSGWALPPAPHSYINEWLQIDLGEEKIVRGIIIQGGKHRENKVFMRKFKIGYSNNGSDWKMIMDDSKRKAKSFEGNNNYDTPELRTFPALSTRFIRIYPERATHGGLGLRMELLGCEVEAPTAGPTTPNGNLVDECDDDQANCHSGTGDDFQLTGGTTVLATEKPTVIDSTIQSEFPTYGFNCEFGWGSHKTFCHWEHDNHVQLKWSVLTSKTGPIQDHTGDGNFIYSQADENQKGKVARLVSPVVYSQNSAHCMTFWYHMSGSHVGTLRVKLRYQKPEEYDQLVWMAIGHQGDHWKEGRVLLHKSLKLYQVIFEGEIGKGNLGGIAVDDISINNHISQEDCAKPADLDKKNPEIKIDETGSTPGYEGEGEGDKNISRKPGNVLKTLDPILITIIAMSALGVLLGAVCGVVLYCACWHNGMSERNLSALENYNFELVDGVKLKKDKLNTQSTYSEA

B1: VEGF165 (R&Dsystems, #293-VE/CF) (ligand, human, UniProt P15692-4 27-191, looked up)
chain: APMAEGGGQNHHEVVKFMDVYQRSYCHPIETLVDIFQEYPDEIEYIFKPSCVPLMRCGGCCNDEGLECVPTEESNITMQIMRIKPHQGQHIGEMSFLQHNKCECRPKKDRARQENPCGPCSERRKHLFVQDPQTCKCSCKNTDSRCKARQLELNERTCRCDKPRR
notes: mature; also called recombinant human VEGF
Take B1: the binding result is recorded as “binds”.
